17 molecules from patent publication US20130251703A1 (Novartis, published 2013) can be followed below.

Experiment [1] deals with T1, Hu HER3: CD33-[Human HER3, residues 20-640]-TAG (human, UniProt P21860 20-640).
T1 construct: also called hu HER3-Tag; HER3-Tag; not shown: C-terminal TAG (e.g. FLAG TAG)
The experiment can be described thus: solution equilibrium titration (SET), IgG, ECL read-out.

The target of experiment [2] is T2, human HER3 endogenously expressed on human cancer cells (SK-Br-3, BT-474, MCF7) (human, UniProt P21860 20-1342). The experiment can be described thus: cell-based or functional assay.
Experiment [3] deals with T2, human HER3 endogenously expressed on …. The experiment can be described thus: cell-based or functional assay. This is another data set of the same source.
Experiment [4] shares this target. The experiment can be described thus: cell-based or functional assay. The source holds these as a separate data set.

Numbering of substitutions follows the chain as printed.

B1: MOR13657 (antibody, human IgG1, lambda, V domains shown)
VH: QVQLVQSGAEVKKPGASVKVSCKASGYTFTSYDIHWVRQAPGQGLEWMGRIDPYSGNTNYAQKFQGRVTMTRDTSISTAYMELSRLRSEDTAVYYCARGSFYTRDSYFDVWGQGTLVTVSS
VL: DIALTQPASVSGSPGQSITISCTGTSSDVGTYNQVSWYQQHPGKAPKLMIYGVSKRPSGVSNRFSGSKSGNTASLTISGLQAEDEADYYCSARDGWSEYVFGGGTKLTVLG
notes: Tested as IgG
B1: in experiment [1], the Kd was found to be 0.087 nM. For the same molecule, in experiment [2], the “BT474 pHER3 % inhibition” value was determined as 63%, the “BT474 pHER3 IC50” value is 372 pM, the “MCF7 pHER3 % inhibition” value is 75% and the “MCF7 pHER3 IC50” value worked out at 283 pM. In experiment [2], the “SK-Br-3 pHER3 % inhibition” value was determined as 71% and the “SK-Br-3 pHER3 IC50” value came to 142 pM. In experiment [3], the “BT-474 pAkt % inhibition” value was found to be 53%, the “BT-474 pAkt IC50” value turned out to be 586 pM, the “MCF7 pAkt % inhibition” value is 75% and the “MCF7 pAkt IC50” value worked out at 385 pM. In experiment [3], the “SK-Br-3 pAkt % inhibition” value stood at 91% and the “SK-Br-3 pAkt IC50” value was 33 pM. For the same molecule, in experiment [4], the “BT-474 proliferation % inhibition” value worked out at 30%, the “BT-474 proliferation IC50” value was 473 pM, the “SK-Br-3 proliferation % inhibition” value was 39% and the “SK-Br-3 proliferation IC50” value turned out to be 179 pM.

B2: MOR13661 (antibody, human IgG1, lambda, V domains shown)
VH: B1 VH
VL: DIALTQPASVSGSPGQSITISCTGTSSDVGTYNQVSWYQQHPGKAPKLMIYGVSKRPSGVSNRFSGSKSGNTASLTISGLQAEDEADYYCGSRDSWAHVFGGGTKLTVLG
For the molecule B2, in experiment [2], the “MCF7 pHER3 % inhibition” value turned out to be 55%, the “MCF7 pHER3 IC50” value came out at 649 pM, the “SK-Br-3 pHER3 % inhibition” value came out at 55% and the “SK-Br-3 pHER3 IC50” value amounted to 421 pM.

B3: MOR13667 (antibody, human IgG1, lambda, V domains shown)
VH: B1 VH
VL: B1 VL with S91Q, R93W, G95Y, W96R, S97Q, E98T, Y99I
With B3, in experiment [2], the “MCF7 pHER3 % inhibition” value came out at 72%, the “MCF7 pHER3 IC50” value amounted to 603 pM, the “SK-Br-3 pHER3 % inhibition” value is 59% and the “SK-Br-3 pHER3 IC50” value stood at 267 pM.

B4: MOR13662 (antibody, human IgG1, lambda, V domains shown)
VH: B1 VH
VL: DIALTQPASVSGSPGQSITISCTGTSSDVGTYNQVSWYQQHPGKAPKLMIYGVSKRPSGVSNRFSGSKSGNTASLTISGLQAEDEADYYCYSRAKTHWTDVFGGGTKLTVLG
Take B4: in experiment [2], the “MCF7 pHER3 % inhibition” value stood at 52%, the “MCF7 pHER3 IC50” value is 550 pM, the “SK-Br-3 pHER3 % inhibition” value came to 56% and the “SK-Br-3 pHER3 IC50” value is 331 pM.

B5: MOR12920 (antibody, human IgG1, lambda, V domains shown)
VH: B1 VH with S31G, D33Y, I34M, R50D, D52E, S55H, N57K, T58P, N59L
VL: B1 VL with K44N, A92S, G95L, W96I, S97G, E98H
For the molecule B5, in experiment [2], the “BT474 pHER3 % inhibition” value was determined as 57%, the “BT474 pHER3 IC50” value was found to be 2020 pM, the “MCF7 pHER3 % inhibition” value stood at 66% and the “MCF7 pHER3 IC50” value was determined as 3070 pM. Besides, in experiment [2], the “SK-Br-3 pHER3 % inhibition” value stood at 57% and the “SK-Br-3 pHER3 IC50” value was 851 pM. Further, in experiment [4], the “MCF7 proliferation % inhibition” value was found to be 22%, the “MCF7 proliferation IC50” value turned out to be 1920 pM, the “SK-Br-3 proliferation % inhibition” value amounted to 32% and the “SK-Br-3 proliferation IC50” value came to 2910 pM.

B6: MOR13664 (antibody, human IgG1, lambda, V domains shown)
VH: B1 VH
VL: B1 VL with R93Y, G95A, W96S, S97T, E98Q, Y99V
For the molecule B6, in experiment [2], the “MCF7 pHER3 % inhibition” value stood at 55%, the “MCF7 pHER3 IC50” value worked out at 480 pM, the “SK-Br-3 pHER3 % inhibition” value was 57% and the “SK-Br-3 pHER3 IC50” value was found to be 388 pM.

B7: MOR13665 (antibody, human IgG1, lambda, V domains shown)
VH: B1 VH
VL: B2 VL with G91Q, R93A, D94A, S95I, W96A, A97T, H98S
Regarding B7, in experiment [2], the “MCF7 pHER3 % inhibition” value is 62%, the “MCF7 pHER3 IC50” value amounted to 795 pM, the “SK-Br-3 pHER3 % inhibition” value is 59% and the “SK-Br-3 pHER3 IC50” value worked out at 546 pM.

B8: MOR13663 (antibody, human IgG1, lambda, V domains shown)
VH: B1 VH
VL: B1 VL with A92V, R93W, D94T, G95S, W96I, S97K, E98V, Y99F
Take B8: in experiment [2], the “MCF7 pHER3 % inhibition” value is 58%, the “MCF7 pHER3 IC50” value worked out at 449 pM, the “SK-Br-3 pHER3 % inhibition” value was found to be 56% and the “SK-Br-3 pHER3 IC50” value was 290 pM.

B9: MOR12922 (antibody, human IgG1, lambda, V domains shown)
VH: B1 VH with S31G, D33Y, I34M, R50V, N57W, N59E
VL: B1 VL with A92S, G95L, W96I, S97G, E98H
With B9, in experiment [2], the “BT474 pHER3 % inhibition” value came to 58%, the “BT474 pHER3 IC50” value is 702 pM, the “MCF7 pHER3 % inhibition” value stood at 62% and the “MCF7 pHER3 IC50” value was determined as 788 pM. For the same molecule, in experiment [2], the “SK-Br-3 pHER3 % inhibition” value was 64% and the “SK-Br-3 pHER3 IC50” value came to 81 pM. For the same molecule, in experiment [4], the “MCF7 proliferation % inhibition” value came to 27%, the “MCF7 proliferation IC50” value came out at 467 pM, the “SK-Br-3 proliferation % inhibition” value is 36% and the “SK-Br-3 proliferation IC50” value was 709 pM.

B10: MOR13668 (antibody, human IgG1, lambda, V domains shown)
VH: B1 VH
VL: B1 VL with S91Q, A92V, R93W, G95S, W96D, S97Q, E98A, Y99M
Regarding B10, in experiment [2], the “MCF7 pHER3 % inhibition” value is 77%, the “MCF7 pHER3 IC50” value was determined as 1640 pM, the “SK-Br-3 pHER3 % inhibition” value was found to be 58% and the “SK-Br-3 pHER3 IC50” value came out at 657 pM.

B11: MOR13660 (antibody, human IgG1, lambda, V domains shown)
VH: B1 VH
VL: B2 VL with G91A, S92V, D94G, W96Q, A97T, H98L
Take B11: in experiment [2], the “MCF7 pHER3 % inhibition” value worked out at 49%, the “MCF7 pHER3 IC50” value was 533 pM, the “SK-Br-3 pHER3 % inhibition” value is 54% and the “SK-Br-3 pHER3 IC50” value is 188 pM.

B12: MOR13670 (antibody, human IgG1, lambda, V domains shown)
VH: B1 VH
VL: B1 VL with S91Q, A92V, R93A, G95Q, W96G, S97W, E98H, Y99Q
On to B12, for which, in experiment [2], the “MCF7 pHER3 % inhibition” value is 69%, the “MCF7 pHER3 IC50” value was 643 pM, the “SK-Br-3 pHER3 % inhibition” value was determined as 60% and the “SK-Br-3 pHER3 IC50” value stood at 730 pM.

B13: MOR13669 (antibody, human IgG1, lambda, V domains shown)
VH: B1 VH
VL: B4 VL with Y91S, S92T, R93A, A94T, K95A, T96M, H97T, W98V, T99S, D100L
Turning to B13, in experiment [2], the “MCF7 pHER3 % inhibition” value was determined as 66%, the “SK-Br-3 pHER3 % inhibition” value came out at 58% and the “SK-Br-3 pHER3 IC50” value turned out to be 743 pM.

B14: MOR13656 (antibody, human IgG1, lambda, V domains shown)
VH: B1 VH
VL: B2 VL with G91A, S92V, W96V, A97W
As to B14, in experiment [2], the “MCF7 pHER3 % inhibition” value was 73%, the “MCF7 pHER3 IC50” value turned out to be 504 pM, the “SK-Br-3 pHER3 % inhibition” value stood at 60% and the “SK-Br-3 pHER3 IC50” value is 86 pM.

B15: MOR13659 (antibody, human IgG1, lambda, V domains shown)
VH: B1 VH
VL: B2 VL with D94T, W96H, A97N, H98W
Consider B15, for which, in experiment [2], the “MCF7 pHER3 % inhibition” value amounted to 66%, the “MCF7 pHER3 IC50” value was 505 pM, the “SK-Br-3 pHER3 % inhibition” value is 51% and the “SK-Br-3 pHER3 IC50” value amounted to 277 pM.

B16: MOR13666 (antibody, human IgG1, lambda, V domains shown)
VH: B1 VH
VL: B1 VL with A92T, R93T, D94T, G95Y, W96S, S97F, E98H, Y99M
notes: Tested as IgG
For B16, the Kd in experiment [1] stood at 0.15 nM. For the same molecule, in experiment [2], the “BT474 pHER3 % inhibition” value is 65%, the “BT474 pHER3 IC50” value was 420 pM, the “MCF7 pHER3 % inhibition” value was determined as 73% and the “MCF7 pHER3 IC50” value is 168 pM. Besides, in experiment [2], the “SK-Br-3 pHER3 % inhibition” value was found to be 69% and the “SK-Br-3 pHER3 IC50” value came out at 166 pM. Moreover, in experiment [3], the “BT-474 pAkt % inhibition” value was 50%, the “BT-474 pAkt IC50” value was 275 pM, the “MCF7 pAkt % inhibition” value turned out to be 72% and the “MCF7 pAkt IC50” value turned out to be 49 pM. In experiment [3], the “SK-Br-3 pAkt % inhibition” value was determined as 90% and the “SK-Br-3 pAkt IC50” value worked out at 78 pM. In experiment [4], the “BT-474 proliferation % inhibition” value turned out to be 31%, the “BT-474 proliferation IC50” value is 1120 pM, the “SK-Br-3 proliferation % inhibition” value was determined as 39% and the “SK-Br-3 proliferation IC50” value was determined as 870 pM.

B17: MOR13658 (antibody, human IgG1, lambda, V domains shown)
VH: B1 VH
VL: B1 VL with S91A, A92S, R93A, G95H, W96S, S97Y, E98H, Y99T
notes: Tested as IgG
For the molecule B17, in experiment [1], the Kd is 0.027 nM. Moreover, in experiment [2], the “BT474 pHER3 % inhibition” value is 67%, the “BT474 pHER3 IC50” value came out at 571 pM, the “MCF7 pHER3 % inhibition” value came to 83% and the “MCF7 pHER3 IC50” value was 459 pM. Besides, in experiment [2], the “SK-Br-3 pHER3 % inhibition” value stood at 74% and the “SK-Br-3 pHER3 IC50” value was found to be 347 pM. In experiment [3], the “BT-474 pAkt % inhibition” value is 56%, the “BT-474 pAkt IC50” value came out at 461 pM, the “MCF7 pAkt % inhibition” value came out at 81% and the “MCF7 pAkt IC50” value was found to be 341 pM. Also, in experiment [3], the “SK-Br-3 pAkt % inhibition” value is 92% and the “SK-Br-3 pAkt IC50” value is 172 pM. Also, in experiment [4], the “BT-474 proliferation % inhibition” value is 34%, the “BT-474 proliferation IC50” value was determined as 423 pM, the “MCF7 proliferation % inhibition” value was found to be 49% and the “MCF7 proliferation IC50” value turned out to be 174 pM. For the same molecule, in experiment [4], the “SK-Br-3 proliferation % inhibition” value amounted to 42% and the “SK-Br-3 proliferation IC50” value is 191 pM.
